Consider 167 variants from the RNAGym collection of RNA variant scans (doi:10.7554/elife.90254).

To fix the notation:
B1: LINE1-full (parent)
chain: UACGUAGGUGGUUUUCCCCUGAUAGUGCUAAGGGGGCCUGGAAGUUUGGACUGGGCAGAGCUCAACACAGCGUGGCAAAGUGGCUGUGGCUAGACUGCCUCUCUGGAUUCCUCGUCACUCAGCAGGGCAUCUCUGAGAGAAAUGCC

The series covers variants of B1. Description: self-cleavage, relative activity (ratio to wild type); higher = more cleavage; in vitro, sequencing; the parent is a self-cleaving ribozyme.
Regarding A67C A92G, the self-cleavage was found to be 0.05.

For the variant A64U U109A, the self-cleavage is 0.49.

Regarding C68U A78U, the self-cleavage worked out at 0.37.

Take A67G G135A: the self-cleavage worked out at 0.68.

On to C66U U119C, for which the self-cleavage worked out at 0.04.

Turning to A64G U85A, the self-cleavage was 0.07.

With A64G U85C, the self-cleavage came to 0.1.

As to C66U U115C, the self-cleavage was 0.01.

In the case of A65G A138U, the self-cleavage was determined as 0.08.

Take A64G C99U: the self-cleavage worked out at 0.18.

On to A67U U108C, for which the self-cleavage worked out at 0.29.

On to C66U U100A, for which the self-cleavage turned out to be 0.02.

Turning to A64U G93U, the self-cleavage turned out to be 0.05.

A65U C133U: the self-cleavage came out at 0.16.

Take A67U C101A: the self-cleavage was determined as 0.09.

In the case of A65G C90G, the self-cleavage was 0.09.

Turning to A65G C90A, the self-cleavage stood at 0.01.

For A65U A69U, the self-cleavage worked out at 0.03.

As for A69C G88A, the self-cleavage is 0.01.

In the case of A65G U104C, the self-cleavage stood at 0.01.

Consider A65G C123G, for which the self-cleavage is 0.03.

On to A65G C123U, for which the self-cleavage was determined as 0.04.

Regarding A67U A78G, the self-cleavage worked out at 0.08.

For A65U G127U, the self-cleavage is 0.28.

As for A67G A77G, the self-cleavage stood at 0.91.

For the variant A65G U91A, the self-cleavage was found to be 0.02.

In the case of A67C A129G, the self-cleavage stood at 0.

A65G U134G: the self-cleavage came out at 0.03.

Regarding A65G U134C, the self-cleavage was 0.06.

Consider A67U G72A, for which the self-cleavage stood at 0.13.

As to A64G G106U, the self-cleavage is 0.15.

A67U G89A: the self-cleavage was 0.03.

Regarding A67G U104A, the self-cleavage came to 0.36.

For A64G G105A, the self-cleavage was determined as 0.03.

For A67U A138U, the self-cleavage amounted to 0.15.

Take A67U A138G: the self-cleavage was 0.13.

For A67U A94G, the self-cleavage is 0.02.

For the variant A65U U102C, the self-cleavage was 0.3.

Consider A65U U102A, for which the self-cleavage was 0.17.

Turning to A64U A142U, the self-cleavage is 0.46.

Take A64U A142G: the self-cleavage came to 0.47.

For the variant A65G G75A, the self-cleavage was 0.03.

As to A65G C71G, the self-cleavage worked out at 0.05.

Regarding A65G U100G, the self-cleavage is 0.

For A67C U130C, the self-cleavage is 0.04.

As to A65G U130C, the self-cleavage worked out at 0.1.

C68U A92G: the self-cleavage is 0.05.

For A67G G106U, the self-cleavage was 0.33.

Take C66U A77G: the self-cleavage worked out at 0.07.

Consider A64U A67G, for which the self-cleavage came to 0.15.

For the variant A65G G88A, the self-cleavage amounted to 0.02.

As to A65G, the self-cleavage amounted to 0.06.

With A65U, the self-cleavage was determined as 0.17.

Take A65C: the self-cleavage turned out to be 0.04.

As to A67G U132A, the self-cleavage was determined as 0.64.

On to A65U A94G, for which the self-cleavage stood at 0.1.

On to A65G G93A, for which the self-cleavage amounted to 0.02.

A67U U112C: the self-cleavage came to 0.09.

For A65G A94U, the self-cleavage is 0.05.

For the variant A67U C99A, the self-cleavage stood at 0.

For the variant A69G A79G, the self-cleavage came to 0.31.

A67U G83A: the self-cleavage amounted to 0.03.

Turning to A65C G74U, the self-cleavage stood at 0.03.

As for A67G G72A, the self-cleavage was found to be 0.21.

For A64G U109A, the self-cleavage was determined as 0.14.

As for A64G U109C, the self-cleavage is 0.2.

On to A67G C68U, for which the self-cleavage was 0.04.

With A64G U119A, the self-cleavage turned out to be 0.32.

Regarding A65U A78G, the self-cleavage was determined as 0.16.

In the case of A65U A78U, the self-cleavage was found to be 0.2.

In the case of A67C U109C, the self-cleavage stood at 0.06.

On to A64U C113A, for which the self-cleavage was 0.17.

As for A64U C113U, the self-cleavage was 0.28.

Turning to A67G U134A, the self-cleavage is 0.39.

For the variant A69C U132A, the self-cleavage was determined as 0.2.

Regarding A69C U132C, the self-cleavage came out at 0.

Regarding A67C C118G, the self-cleavage was 0.05.

As to A65G G86A, the self-cleavage came out at 0.02.

As to A67G A124G, the self-cleavage amounted to 0.26.

Consider C66U U104C, for which the self-cleavage was 0.05.

With C66U A117G, the self-cleavage turned out to be 0.05.

With C68G U134G, the self-cleavage came out at 0.04.

Regarding C66U A78G, the self-cleavage worked out at 0.04.

Consider A65G C128U, for which the self-cleavage was 0.05.

With A64U G70A, the self-cleavage was determined as 0.07.

Regarding A67G C131A, the self-cleavage amounted to 0.72.

A67G C131G: the self-cleavage was 0.

As to A65G G105A, the self-cleavage was 0.01.

For the variant A64G G125U, the self-cleavage came to 0.33.

For A64G U100C, the self-cleavage is 0.29.

For A64G U100A, the self-cleavage worked out at 0.23.

As to A65G C113U, the self-cleavage turned out to be 0.04.

Consider A64G U134A, for which the self-cleavage turned out to be 0.24.

On to A64U U104A, for which the self-cleavage amounted to 0.29.

On to A67C A69G, for which the self-cleavage is 0.

On to A67U U85A, for which the self-cleavage stood at 0.05.

In the case of A64U A69G, the self-cleavage was found to be 0.17.

Consider A64U A69U, for which the self-cleavage was 0.07.

A64G U102A: the self-cleavage amounted to 0.15.

As for A67G G74U, the self-cleavage is 0.54.

On to A67U A136C, for which the self-cleavage is 0.03.

For the variant C66G U81A, the self-cleavage was 0.02.

As to A65U U85G, the self-cleavage turned out to be 0.1.

For the variant A65U U85C, the self-cleavage came out at 0.06.

Regarding A65U A138U, the self-cleavage was 0.16.

Take A64U A141G: the self-cleavage was 0.32.

Turning to A65G A67C, the self-cleavage is 0.14.

In the case of A65G A67G, the self-cleavage amounted to 0.09.

For A65G A67U, the self-cleavage amounted to 0.03.

In the case of A65G G127A, the self-cleavage came out at 0.05.

As for A67G A78U, the self-cleavage was 0.65.

With A65G U102A, the self-cleavage amounted to 0.01.

In the case of A65G U102C, the self-cleavage stood at 0.08.

Consider A65G U102G, for which the self-cleavage came out at 0.

With A65U U87C, the self-cleavage is 0.04.

For the variant A65U U87A, the self-cleavage stood at 0.25.

Consider A69C A78G, for which the self-cleavage worked out at 0.1.

Take A65G G135U: the self-cleavage was 0.14.

As for A67C A117G, the self-cleavage amounted to 0.

Regarding A67G A79G, the self-cleavage is 0.5.

With A67G G86A, the self-cleavage stood at 0.05.

Turning to C68U U96C, the self-cleavage was determined as 0.04.

As to A65U U143A, the self-cleavage stood at 0.06.

Take A65U U143C: the self-cleavage was found to be 0.24.

For A64G U96C, the self-cleavage was 0.15.

A65G A129G: the self-cleavage was 0.03.

For the variant A65G A129U, the self-cleavage was 0.02.

For A64U U132G, the self-cleavage was found to be 0.61.

A64U U132C: the self-cleavage came out at 0.49.

A65G A141G: the self-cleavage is 0.07.

In the case of A64U G137A, the self-cleavage was determined as 0.24.

A64G G127A: the self-cleavage turned out to be 0.18.

A64G G127U: the self-cleavage worked out at 0.21.

As to A67U A121U, the self-cleavage stood at 0.12.

On to A64U A136U, for which the self-cleavage is 0.45.

On to A64U A136G, for which the self-cleavage worked out at 0.71.

Regarding A65G U96A, the self-cleavage worked out at 0.07.

Consider A67G G144A, for which the self-cleavage stood at 0.69.

In the case of A65G G139A, the self-cleavage was 0.06.

A65G U119A: the self-cleavage came out at 0.05.

As to A65G A117U, the self-cleavage was 0.04.

As to A65G U73A, the self-cleavage was determined as 0.04.

For A65G U73C, the self-cleavage worked out at 0.06.

On to A64U A94C, for which the self-cleavage amounted to 0.05.

Take A64U A94G: the self-cleavage was 0.09.

Consider C68A G88A, for which the self-cleavage worked out at 0.01.

For the variant C68U A138G, the self-cleavage came to 0.17.

With C68U U85C, the self-cleavage was 0.03.

For C68U U85A, the self-cleavage was 0.03.

Consider A67G A138G, for which the self-cleavage turned out to be 0.67.

As for A67G A138U, the self-cleavage was found to be 0.56.

For the variant A65C A69U, the self-cleavage was 0.36.

As to A64U G114A, the self-cleavage was found to be 0.41.

On to A67G C98U, for which the self-cleavage is 0.06.

Regarding A64G U87C, the self-cleavage was 0.06.

With C68U U104A, the self-cleavage was found to be 0.03.

Turning to A69G A77C, the self-cleavage is 0.61.

For A69G A77G, the self-cleavage amounted to 0.6.

Regarding A69G A77U, the self-cleavage is 0.58.

For A65G A78G, the self-cleavage was 0.04.

For A67G C103U, the self-cleavage was determined as 0.25.

As for A67U U96C, the self-cleavage turned out to be 0.07.

With A67C A77G, the self-cleavage came to 0.22.

On to A67U U91C, for which the self-cleavage amounted to 0.05.

Regarding A67U U91A, the self-cleavage stood at 0.08.

On to A65U A77G, for which the self-cleavage was 0.3.

C66U U73A: the self-cleavage was determined as 0.03.
